Data published in PMC3094755, “The DNA-Binding Domain of Human PARP-1 Interacts with DNA Single-Strand Breaks as a Monomer through Its Second Zinc Finger”.

Key:
[1] = biological target: T1, PARP-1 F1+F2 (24-kDa DBD) (Homo sapiens, UniProt P09874 1-214); assay: EMSA; 400 nM DNA; FA: 50 mM Tris-HCl pH 7, 150 uM ZnSO4, 4 mM DTT, 0-200 mM NaCl, 25 C, 10 nM DNA (mutants 25 nM DNA, 25 mM NaCl); EMSA: 50 mM Tris-HCl pH 7.4, 150 uM ZnSO4, 4 mM DTT, 10% glycerol, RT incubation, gel at 4 C; NMR complexes: 50 mM Tris pH 7.0, 150 uM ZnSO4, 4 mM DTT, 37 C; conditions: protein: recombinant; single-chain dumbbell, 18 bp with central nick, two tetraloops
T1 sequence (P09874 1-214): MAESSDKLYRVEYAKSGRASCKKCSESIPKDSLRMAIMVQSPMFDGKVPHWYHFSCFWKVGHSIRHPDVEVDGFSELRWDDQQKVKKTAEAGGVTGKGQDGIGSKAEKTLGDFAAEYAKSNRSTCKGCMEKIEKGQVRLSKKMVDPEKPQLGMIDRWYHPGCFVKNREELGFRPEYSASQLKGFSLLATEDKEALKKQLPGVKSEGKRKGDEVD

PARP-1 F2 = PARP-1 F2 (Homo sapiens, UniProt P09874 103-214); assay: EMSA; 400 nM DNA; slightly less than F1+F2; FA: 50 mM Tris-HCl pH 7, 150 uM ZnSO4, 4 mM DTT, 0-200 mM NaCl, 25 C, 10 nM DNA (mutants 25 nM DNA, 25 mM NaCl); EMSA: 50 mM Tris-HCl pH 7.4, 150 uM ZnSO4, 4 mM DTT, 10% glycerol, RT incubation, gel at 4 C; NMR complexes: 50 mM Tris pH 7.0, 150 uM ZnSO4, 4 mM DTT, 37 C; conditions: protein: recombinant; single-chain dumbbell with 1-nt gap, two tetraloops
Sequence of PARP-1 F2 (P09874 103-214): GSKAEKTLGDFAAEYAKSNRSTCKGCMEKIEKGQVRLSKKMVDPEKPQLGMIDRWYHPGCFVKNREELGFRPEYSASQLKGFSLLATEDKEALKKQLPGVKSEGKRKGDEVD

[2] = biological target: T1, PARP-1 F1+F2 (24-kDa DBD); assay: EMSA; 400 nM DNA; FA: 50 mM Tris-HCl pH 7, 150 uM ZnSO4, 4 mM DTT, 0-200 mM NaCl, 25 C, 10 nM DNA (mutants 25 nM DNA, 25 mM NaCl); EMSA: 50 mM Tris-HCl pH 7.4, 150 uM ZnSO4, 4 mM DTT, 10% glycerol, RT incubation, gel at 4 C; NMR complexes: 50 mM Tris pH 7.0, 150 uM ZnSO4, 4 mM DTT, 37 C; conditions: protein: recombinant; single-chain dumbbell with 1-nt gap, two tetraloops
PARP-1 F2 K141I/K142I = PARP-1 F2 K141I/K142I (Homo sapiens, UniProt P09874 103-214, K141I;K142I); assay: as above; conditions: protein: recombinant; single-chain dumbbell with 1-nt gap, two tetraloops
Sequence of PARP-1 F2 K141I/K142I (P09874 103-214 K141I/K142I): as the sequence (P09874 103-214) above, with K39I, K40I counted along it

PARP-1 F2 K131I/G135D = PARP-1 F2 K131I/G135D (Homo sapiens, UniProt P09874 103-214, K131I;G135D); assay: as above; conditions: protein: recombinant; single-chain dumbbell with 1-nt gap, two tetraloops
Sequence of PARP-1 F2 K131I/G135D (P09874 103-214 K131I/G135D): as the sequence (P09874 103-214) above, with K29I, G33D counted along it

PARP-1 F2 R138I = PARP-1 F2 R138I (Homo sapiens, UniProt P09874 103-214, R138I); assay: as above; conditions: protein: recombinant; single-chain dumbbell with 1-nt gap, two tetraloops
Sequence of PARP-1 F2 R138I (P09874 103-214 R138I): as the sequence (P09874 103-214) above, with R36I counted along it

[3] = biological target: T1, PARP-1 F1+F2 (24-kDa DBD); assay: NMR; 1:1 complex; FA: 50 mM Tris-HCl pH 7, 150 uM ZnSO4, 4 mM DTT, 0-200 mM NaCl, 25 C, 10 nM DNA (mutants 25 nM DNA, 25 mM NaCl); EMSA: 50 mM Tris-HCl pH 7.4, 150 uM ZnSO4, 4 mM DTT, 10% glycerol, RT incubation, gel at 4 C; NMR complexes: 50 mM Tris pH 7.0, 150 uM ZnSO4, 4 mM DTT, 37 C; conditions: protein: recombinant; single-chain dumbbell with 1-nt gap, two tetraloops
[4] = biological target: T1, PARP-1 F1+F2 (24-kDa DBD); assay: fluorescence anisotropy; 75; 50 mM Tris-HCl pH 7.0, 150 uM ZnSO4, 4 mM DTT, 25 C; NaCl 0-200 mM (T2, as in cof; 10 nM DNA) or 25 mM (T3 mutants; 25 nM DNA); conditions: protein: recombinant, label: fluorescein-dT at T8 and T30, two tetraloops
[5] = biological target: T1, PARP-1 F1+F2 (24-kDa DBD); assay: fluorescence anisotropy; 25; 50 mM Tris-HCl pH 7.0, 150 uM ZnSO4, 4 mM DTT, 25 C; NaCl 0-200 mM (T2, as in cof; 10 nM DNA) or 25 mM (T3 mutants; 25 nM DNA); conditions: protein: recombinant, label: fluorescein-dT at T8 and T30, two tetraloops
[6] = biological target: T1, PARP-1 F1+F2 (24-kDa DBD); assay: fluorescence anisotropy; 100; 50 mM Tris-HCl pH 7.0, 150 uM ZnSO4, 4 mM DTT, 25 C; NaCl 0-200 mM (T2, as in cof; 10 nM DNA) or 25 mM (T3 mutants; 25 nM DNA); conditions: protein: recombinant, label: fluorescein-dT at T8 and T30, two tetraloops
[7] = biological target: T1, PARP-1 F1+F2 (24-kDa DBD); assay: fluorescence anisotropy; 200; 50 mM Tris-HCl pH 7.0, 150 uM ZnSO4, 4 mM DTT, 25 C; NaCl 0-200 mM (T2, as in cof; 10 nM DNA) or 25 mM (T3 mutants; 25 nM DNA); conditions: protein: recombinant; label: fluorescein-dT at T8 and T30; single-chain dumbbell with central nick, two tetraloops
[8] = biological target: T1, PARP-1 F1+F2 (24-kDa DBD); assay: fluorescence anisotropy; 0; 50 mM Tris-HCl pH 7.0, 150 uM ZnSO4, 4 mM DTT, 25 C; NaCl 0-200 mM (T2, as in cof; 10 nM DNA) or 25 mM (T3 mutants; 25 nM DNA); conditions: protein: recombinant, label: fluorescein-dT at T8 and T30, two tetraloops
[9] = biological target: T1, PARP-1 F1+F2 (24-kDa DBD); assay: fluorescence anisotropy; 50; 50 mM Tris-HCl pH 7.0, 150 uM ZnSO4, 4 mM DTT, 25 C; NaCl 0-200 mM (T2, as in cof; 10 nM DNA) or 25 mM (T3 mutants; 25 nM DNA); conditions: protein: recombinant, label: fluorescein-dT at T8 and T30, two tetraloops
[10] = biological target: T1, PARP-1 F1+F2 (24-kDa DBD); assay: fluorescence anisotropy; 150; 50 mM Tris-HCl pH 7.0, 150 uM ZnSO4, 4 mM DTT, 25 C; NaCl 0-200 mM (T2, as in cof; 10 nM DNA) or 25 mM (T3 mutants; 25 nM DNA); conditions: protein: recombinant; label: fluorescein-dT at T8 and T30; single-chain dumbbell with central nick, two tetraloops
[11] = single-chain dumbbell with central nick
[12] = circular closed dumbbell, no nick

B1: 44-nt nicked dumbbell, 5'-phosphate (structured_DNA)
DNA: CGGTCGATCGTAAGATCGACCGGCGCTGGAGCTTGCTCCAGCGC
modifications: 5'-phosphate
For B1, the binding signal [1] was ~2 fold weaker than gapped ligand.

B2: 45-nt gapped dumbbell, 5'-phosphate (structured_DNA)
DNA: CGGTCGATCGTAAGATCGACCGTGCGCTGGAGCTTGCTCCAGCGC
modifications: 5'-phosphate
B2: binds (PARP-1 F2); binds [2]; no binding (PARP-1 F2 K141I/K142I). B2: no binding (PARP-1 F2 K131I/G135D); no binding (PARP-1 F2 R138I).

B3: 45-nt gapped dumbbell, 3'-phosphate (structured_DNA)
DNA: CGGTCGATCGTAAGATCGACCGTGCGCTGGAGCTTGCTCCAGCGC
modifications: 3'-phosphate
B3: binds [3].

B4: 45-nt gapped dumbbell, 5'-ribosylated (structured_DNA)
DNA: CGGTCGATCGTAAGATCGACCGTGCGCTGGAGCTTGCTCCAGCGC
modifications: 5'-deoxyribose (printed as 5' ribose in text)
B4: binds [3].

B5: 44-nt nicked symmetric dumbbell, 5'-phosphate, 2x fluorescein-dT (structured_DNA)
DNA: CGGTCGATCGTAAGATCGACCGCGGTCGATCGTAAGATCGACCG
modifications: 5'-phosphate
B5 showed a Kd [4, 11] of 62.4 nM, a Kd [5, 11] of 54.2 nM and a Kd [6, 11] of 56.9 nM. The Kd [7] was 46.2 nM, the Kd [8, 11] was 48.6 nM and the Kd [9, 11] was 56.1 nM. The Kd [10] was 52.4 nM.

B6: ligated (circular) symmetric 44-nt dumbbell, 2x fluorescein-dT (structured_DNA)
DNA: CGGTCGATCGTAAGATCGACCGCGGTCGATCGTAAGATCGACCG
modifications: circular, nick sealed by T4 DNA ligase
Binder B6 has a Kd [4, 12] of 480 nM, a Kd [5, 12] of 134 nM and a Kd [6, 12] of 1110 nM. For the same binder, the Kd [8, 12] was 117 nM and the Kd [9, 12] was 166 nM.
